Experimental data reported in patent US11857697B2, “Compositions and methods for obtaining 3-dimensional lung-like epithelium and related uses thereof” (THE REGENTS OF THE UNIVERSITY OF MICHIGAN, priority 2017, dated 2024).
Entries after “also recorded” stand apart in the source; their conditions may differ.

Key:
[1] = system: 12 week human fetal distal epithelial lung buds; experiment: Isolated human fetal lung bud culture in Matrigel: growth/expansion; format: cell-based; conditions: FGF10 500 ng/mL
Description: All research utilizing human fetal tissue was approved by the University of Michigan institutional review board. Normal human fetal lungs were obtained from the University of Washington Laboratory of Developmental Biology, and epithelial lung buds were dissected as described below. All experiments were repeated using tissues from 3 individual lungs; 84 day post fertilization of unknown gender, 87 day post fertilization male, and 87 day post fertilization of unknown gender. All tissues were shipped in Belzer's solution at 4 degrees Celsius and were processed and in culture within 24 hours of isolation.
(§1) Isolated mouse buds were cultured in 4-6 μl droplets of matrigel, covered with media, and kept at 37 degrees Celsius with 5% Carbon Dioxide. Isolated human fetal lung buds were cultured in 25-50 μl droplets of matrigel, covered with media, and kept at 37 degrees Celsius with 5% Carbon Dioxide.
Distal regions of 12 week fetal lungs were cut into ˜2 mm sections and incubated with dispase, 100% FBS and then 10% FBS as described above, and moved to a sterile petri dish. Mesenchyme was removed by repeated pipetting of distal lung pieces after dispase treatment. Buds were washed with DMEM until mesenchymal cells were no longer visible in the media. Buds were then moved to a 1.5 mL eppendorf tube containing 200 uL of Matrigel, mixed using a p200 pipette, and plated in ˜20 uL droplets in a 24 well tissue culture plate. Plates were placed at 37 degrees Celsius with 5% CO2 for 20 minutes while droplets solidified. 500 uL of media was added to each well containing a droplet. Media was changed every 2-3 days.
All mouse bud, human fetal bud, and hPSC-derived human lung organoids were grown in low-serum basal media (basal media) with added growth factors. […]

[2] = system: E13.5 mouse distal epithelial lung buds; experiment: Isolated E13.5 mouse distal lung bud culture in Matrigel droplet: growth/expansion; format: cell-based; conditions: FGF10 500 ng/mL (50-fold excess), up to 5 days
Procedure: as §1
Mouse buds were dissected from E13.5 embryos. For experiments using Sox9CreER; Rosa^Tomato/Tomato mice, 50 ug/g of tamoxifen was dissolved in corn oil and given by oral gavage on E12.5, 24 hours prior to dissection. Briefly, in sterile environment, whole lungs were placed in 100% dispase (Corning Cat#354235) on ice for 30 minutes. Lungs were then transferred using a 25 uL wiretrol tool (Drummond Scientific Cat#S5-000-2050) to 100% FBS (Corning Cat#35-010-CV) on ice for 15 minutes, and then transferred to a solution of Dulbecco's Modified Eagle Medium: Nutrient Mixture F12 (DMEM/F12, ThermoFisher SKU#12634-010) with 10% FBS and 1× Pennicillin-Streptomycin (ThermoFisher Cat#15140122) on ice. To dissect buds, a single lung or lung lobe was transferred by wiretrol within a droplet of media to a 100 mm sterile petri dish. Under a dissecting microscope, the mesenchyme was carefully removed and epithelial bud tips were torn away from the bronchial tree using tungsten needles (Point Technologies, Inc.). Care was taken to remove the trachea and any connective tissue from dissected lungs. Isolated bud tips were picked up using a p20 pipette and added to an eppendorf tube with cold Matrigel (Corning Ref#354248) on ice. The buds were picked up in a p20 pipette with 4-6 uL of Matrigel and plated on a 24-well tissue culture well (ThermoFisher Cat#142475). The plate was moved to a tissue culture incubator and incubated for 5 minutes at 37 degrees Celsius and 5% CO2 to allow the Matrigel droplet to solidify. 500 uL of media was then added to the dish in a laminar flow hood. Media was changed every 2-3 days.
All mouse bud, human fetal bud, and hPSC-derived human lung organoids were grown in low-serum basal media (basal media) with added growth factors. Basal media consisted of Dulbecco's Modified Eagle Medium: Nutrient Mixture F12 (DMEM/F12, ThermoFisher SKU#12634-010) supplemented with 1× N2 supplement (ThermoFisher Catalog#17502048) and […] B27 supplement (ThermoFisher Catalog#17504044), along with 2 mM Glutamax (ThermoFisher Catalog#35050061), 1× Pennicillin-Streptomycin (ThermoFisher Cat#15140122) and 0.05% Bovine Serum Albumin (BSA; Sigma product# A9647). BSA was weighed and dissolved in DMEM F/12 media before being passed through a SteriFlip 0.22 uM filter (Millipore Item# EW-29969-24) and being added to basal media. Media was stored at 4 degrees Celsius for up to 1 month. On the day of use, basal media was aliquoted and 50 ug/mL Ascorbic acid and 0.4 uM Monothioglycerol was added. […]

Row | Molecule | Tissue expansion / cyst formation of bud tips ([1]; Y27632 10 uM) | Growth of human fetal lung buds ([1]; compared to basal media) | Bud growth [2]
1 | C[C@@H](N)[C@H]1CC[C@H](C(=O)Nc2ccncc2)CC1 [Y27632, reference compound] | in combination with FGF10, but not alone, promoted growth of buds into larger cyst-like structures; also recorded: did not lead to tissue expansion | – | –
2 | Recombinant Human Fibroblast Growth Factor 10 (protein, UniProt O15520 38-208, looked up) Fibroblast growth factor 10: QALGQDMVSPEATNSSSSSFSSPSSAGRHVRSYNHLQGDVRWRKLFSFTKYFLKIEKNGKVSGTKKENCPYSILEITSVEIGVVAVKAINSNYYLAMNKKGKLYGSKEFNNDCKLKERIEENGYNTYASFNWQHNGRQMYVALNGKGAPRRGQKTRRKNTSAHFLPMVVHS | – | only modest growth; also recorded: expansion of the tissue was not robust | modest growth of buds
